From US20110262964A1 (published 2011)
Values joined by “and” are separate entries in the source; they are usually repeats but may differ in a detail not shown here. Equal entries are not always repeated.

Tests used:
[1] = molecular target: T1, maltose binding protein MalE from Escherichia coli (Escherichia coli, UniProt P0AEX9 27-396 = MBP); assay: competition Biacore in solution, buffer M2; buffer M2
[2] = molecular target: bt-MalE, hybrid between a peptide that can be biotinylated in vivo by E. coli and MalE (Escherichia coli)
[3] = molecular target: T1, maltose binding protein MalE from …; assay: competition Biacore in solution, buffer L2; buffer L2
[4] = molecular target: T2, bovine serum albumin (bovine, UniProt P02769 25-607); assay: fluorescence titration of 0.3 µM DarpOff7(N45ANBD) by BSA, 25 °C, buffer M1
T2 construct: also called BSA
T2 sequence (P02769 25-607 limits assumed): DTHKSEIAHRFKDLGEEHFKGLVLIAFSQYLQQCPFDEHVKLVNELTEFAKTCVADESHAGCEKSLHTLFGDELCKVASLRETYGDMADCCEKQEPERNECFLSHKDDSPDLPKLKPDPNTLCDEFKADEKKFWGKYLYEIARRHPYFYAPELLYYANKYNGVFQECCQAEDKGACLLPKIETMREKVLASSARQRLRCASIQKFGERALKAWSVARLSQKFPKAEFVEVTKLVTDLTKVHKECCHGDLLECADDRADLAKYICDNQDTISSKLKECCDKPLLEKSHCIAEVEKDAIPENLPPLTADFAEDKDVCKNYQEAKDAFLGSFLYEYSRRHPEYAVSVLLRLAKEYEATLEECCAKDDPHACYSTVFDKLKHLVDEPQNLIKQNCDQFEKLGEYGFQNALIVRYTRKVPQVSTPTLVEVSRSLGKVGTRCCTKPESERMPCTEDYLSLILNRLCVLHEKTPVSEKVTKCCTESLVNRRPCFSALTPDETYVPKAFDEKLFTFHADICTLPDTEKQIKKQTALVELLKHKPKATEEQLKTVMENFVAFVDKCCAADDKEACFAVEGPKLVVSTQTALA

[5] = molecular target: T1, maltose binding protein MalE from …; assay: ΔG(wt)-ΔG(mut) from Kd by competition Biacore (reference itself)

B1: DarpOff7(wt) (designed binder)
chain: MRGSHHHHHHGSDLGRKLLEAARAGQDDEVRILMANGADVNAADNTGTTPLHLAAYSGHLEIVEVLLKHGADVDASDVFGYTPLHLAAYWGHLEIVEVLLKNGADVNAMDSDGMTPLHLAAKWGYLEIVEVLLKHGADVNAQDKFGKTAFDISIDNGNEDLAEILQKLN
Q: For B1, which Kd [1] is on record?
A: 5.6 nM

Q: What about the koff [2] of the same binder?
A: 0.0051 s⁻¹ and 0.0062 s⁻¹ and 0.0061 s⁻¹

Q: And the kon [2]?
A: 660000 M⁻¹ s⁻¹ and 250000 M⁻¹ s⁻¹ and 550000 M⁻¹ s⁻¹

Q: And the Kd [3]?
A: 11 nM

B2: DarpOff7(N45ANBD) (designed binder)
chain: MRGSHHHHHHGSDLGRKLLEAARAGQDDEVRILMANGADVNAADCTGTTPLHLAAYSGHLEIVEVLLKHGADVDASDVFGYTPLHLAAYWGHLEIVEVLLKNGADVNAMDSDGMTPLHLAAKWGYLEIVEVLLKHGADVNAQDKFGKTAFDISIDNGNEDLAEILQKLN
notes: also called conjugate at position Asn45; Asn45
Q: Does B2 bind [4]?
A: no binding (tested: 2.4 µM)

B3: DarpMbp3-16(wt) (designed binder)
chain: MRGSHHHHHHGSDLGKKLLEAAHAGQDDEVRILMANGADVNAMDNFGVTPLHLAAYWGHFEIVEVLLKYGADVNASDATGDTPLHLAAKWGYLGIVEVLLKYGADVNAQDKFGKTAFDISIDNGNEDLAEILQKLN
Q: B3 was tested. Which ΔΔG [5] did it give?
A: 0 kcal/mol
